Experiment: yeast display, Sf9 membrane polyspecificity reagent, FACS + sequencing; frameworks hold sequencing errors
Outline: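 Polyreactivity labels are assigned by the sorting gate from which each nanobody was recovered. The gates were low and high (top ~1%), set on anti-HA fluorescence for expression and streptavidin fluorescence for reagent binding. Before sorting, galactose-induced (36–48 hours) yeast display cells were stained for 1 hour at 4 °C with 10% biotinylated, detergent-solubilized Sf9 membrane reagent.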
In the case of “QVQLVESGGGLVQAGGSLRLSCAASGRIFWYYAMGWYRQAPGKERELVASIRWGGGNTYYADSVKGRFTISRDNAKNTVYLQMNSLKPEDTAVYYCAKSKVSPSGDFYYWGQGTQVTVSS”, the “polyreactivity (PSR sort gate)” value is reported as “high polyreactivity”.
For “QVQLVESGGGLVQAGGSLRLSCAASGRIFWYYVMGWYRQAPGKEREFVASISSGGSTYYADSVKGRFTISRDNAKNTVYLQMNSLKPEDTAVYYCNAYVYGQRVWYDYWGQGTQVTVSS”, the “polyreactivity (PSR sort gate)” value was “high polyreactivity”.
With “QVQLVESGGGLVQAGGSLRLSCAASGRIFYANAMGWYRQAPGKERELVAAISSGGSTYYADSVKGRFTISRDNAKNTVYLQMNSLKPEDTAVYYCAKDTGSRTDSWTVWHDYWGQGTQVTVSS” the “polyreactivity (PSR sort gate)” value was “low polyreactivity”.
With “QVQLVESGGGLVQAGGSLRLSCAASGRIFYANSMGWYRQAPGKERELVASISARGGYTYYADSVKGRFTISRDTAKNTVYLQMNSLKPEDTAVYYCAAEYLAVSGYWYAYWGQGTQVTVSS” the “polyreactivity (PSR sort gate)” value was “high polyreactivity”.
For “QVQLVESGGGLVQAGGSLRLSCAASGRIFYANTMGWYRKATGKERELVAAISSGGSTTYADSVKGRFTISRENAKNTVYLQMNSLKPEDPAVYYCATNTWYHYQRMYYWGQGTQVTVSS”, the “polyreactivity (PSR sort gate)” value was “high polyreactivity”.
In the case of “QVQLVESGGGLVQAGGSLRLSCAASGRIFYAYAMGWYRQAPGKERELVATITGIGGSTYADSVKGRFTISRDNAKNTVYLQMNSLKPEDTAVYYCNAAKWLTSGGLDYWGQGTQVTVSS”, the “polyreactivity (PSR sort gate)” value is reported as “high polyreactivity”.
With “QVQLVESGGGLVQAGGSLRLSCAASGRIFYDYTMGWYRQAPVKERELVATITSGGNTNYADSVKGRFTISRDNAKNTVYLQMNSLKPEDTEVYYCNADFGYWWDGSRYDYWGQGTQVTVSA” the “polyreactivity (PSR sort gate)” value was “low polyreactivity”.
For “QVQLVESGGGLVQAGGSLRLSCAASGRIFYFNAMGWYRQAPGKERELVAAMSWTGGSTYYADSVKGRFTISRDTAKNTVYLQMNSLKPEDTAVYYCAADRALSISLYPIASFDYWGQGTQVTVSS”, the “polyreactivity (PSR sort gate)” value was “low polyreactivity”.
In the case of “QVQLVESGGGLVQAGGSLRLSCAASGRIFYFNARGWYRQAPGKERELVAAITSGGSTYYADSVKGRFTISRDNAKNTVYLQMNSLKPEDTAVYYCATDWPHWRYVYWFDYWGQGTQVTVSS”, the “polyreactivity (PSR sort gate)” value is reported as “low polyreactivity”.
In the case of “QVQLVESGGGLVQAGGSLRLSCAASGRIFYFYAMGWYRQAPGKEMELVAAISTSGGSTYYADSVKGRFTISRDNAKNTVYLQMNSLKPEDTAVYYCNADGYQSRWYYYNYDYWGQGTQVTVSS”, the “polyreactivity (PSR sort gate)” value is reported as “low polyreactivity”.
In the case of “QVQLVESGGGLVQAGGSLRLSCAASGRIFYFYAMGWYRQAPGKERELVAAISRRGGTTNYADSVKGRFTISRDNAKNTVYLQMNSLKPEDTAVYYCAADYQSVGGAEYDYWGQGTQVTVSS”, the “polyreactivity (PSR sort gate)” value is reported as “high polyreactivity”.
In the case of “QVQLVESGGGLVQAGGSLRLSCAASGRIFYFYPMGWYRQAPGKERELVAAISTSGGSTYYADSVKGRFTISRDNAKNTVYLQMNSLKPEDTAVYYCAARFRYYVSEYDYWGQGTQVTVSS”, the “polyreactivity (PSR sort gate)” value is reported as “low polyreactivity”.
With “QVQLVESGGGLVQAGGSLRLSCAASGRIFYGKAMGWYRQAPGKERELVAGITTSGGGTYYADSVKGRFTISRDNAKNTVYLKMNSLKPEDTAVYYCAAKYRRYRDIQDGGYWGQGTQVTVSS” the “polyreactivity (PSR sort gate)” value was “low polyreactivity”.
In the case of “QVQLVESGGGLVQAGGSLRLSCAASGRIFYGNAMGWYRQAPGKERELVAAITRGVSTYYADSVKGRFTISRDNAKNTVYLQMNSLKPEDTAVYYCAKDRRVRMDSWGQGTQVTVSS”, the “polyreactivity (PSR sort gate)” value is reported as “low polyreactivity”.
With “QVQLVESGGGLVQAGGSLRLSCAASGRIFYGNTMGWSRQAPGKERELVAAISLRGGSTYYADSVKGRFTISRDTAKNTVSLQMNSLKPEDTAVYYCAATGGRGPRRYYWGQGTQVTVSS” the “polyreactivity (PSR sort gate)” value was “high polyreactivity”.
In the case of “QVQLVESGGGLVQAGGSLRLSCAASGRIFYGNTMGWYRQAPGKERELVAAISRSGGSTYYADSVKGRFTISRDNAKNTVYLQMNSLKPEDTAVYYCNARYYRKYDYWGQGTQVTVSS”, the “polyreactivity (PSR sort gate)” value is reported as “high polyreactivity”.
With “QVQLVESGGGLVQAGGSLRLSCAASGRIFYGYAMGWYRQAPGKDRELVATISRSGARTHYADSVKGRFTISRDNAKNTVYLQMNSLKQEDTAVYYCAADVYLSRYEKYGYWGQGTQVTVSS” the “polyreactivity (PSR sort gate)” value was “high polyreactivity”.
With “QVQLVESGGGLVQAGGSLRLSCAASGRIFYGYAMGWYRQAPGKEREFVAAITVSAGSTYYADSVKGRFTISRDNAKNTVYLQMNSLKPEDTAVYYCAAKRYVYPSYRFDYWGKGTQVTVSS” the “polyreactivity (PSR sort gate)” value was “low polyreactivity”.
In the case of “QVQLVESGGGLVQAGGSLRLSCAASGRIFYGYAMGWYRQAPGKERELVAAITRGGSTYYADSVKGRFTISRDNAKNTVYLQMNSLKPEDTAVYYCAAVIYSYRSYREYGYWGQGTQVTVSS”, the “polyreactivity (PSR sort gate)” value is reported as “high polyreactivity”.
With “QVQLVESGGGLVQAGGSLRLSCAASGRIFYGYAMGWYRQAPGKERELVAAITSRGTSTYYADSVKGRFTISRDTAKNTVYLQMNSLKPEDTAVYYCNAAYGRSFYSKVFSYNYWGQGTQVTVSS” the “polyreactivity (PSR sort gate)” value was “high polyreactivity”.
In the case of “QVQLVESGGGLVQAGGSLRLSCAASGRIFYGYAMGWYRQAPGKERELVASISRRGSSTYYADSVKGRFTISRDNAKNTVYLQMNSLKPEDTAVYYCAKYTVQYAISHYDYWGQGTQVTVSS”, the “polyreactivity (PSR sort gate)” value is reported as “high polyreactivity”.
For “QVQLVESGGGLVQAGGSLRLSCAASGRIFYGYAMGWYRQAPGKERELVASITVSRTSTYYADSVKGRFTISRDNAKNTVYLQMNSLKPEDTAVYYCAVGDGFEYDWGQGTQVTVSS”, the “polyreactivity (PSR sort gate)” value was “low polyreactivity”.
For “QVQLVESGGGLVQAGGSLRLSCAASGRIFYGYTMGWYRPAPGKERELVAAISRYGGSTYYADSVKGRFTISRDNAKKTVYLQMNSLKPEDTAVYYCNAVYSRGYVIKPYDYWGQGTQVTVSS”, the “polyreactivity (PSR sort gate)” value was “high polyreactivity”.
With “QVQLVESGGGLVQAGGSLRLSCAASGRIFYGYTMGWYRQAPGKERELVAAITWSGVSTYADSVKGRFTISRDNAKNTVYLQMNSLKPEDTAVYYCNADPIYGKRWRYYYWGQGTQVTVSS” the “polyreactivity (PSR sort gate)” value was “high polyreactivity”.
In the case of “QVQLVESGGGLVQAGGSLRLSCAASGRIFYHNAMGWYRQAPGKERELVAVISWSGTRTYYADSVKGRFTISRDNAKNTVYLQMNSLKPEDTAVYYFNVEPYYTSYWIYPYIYTYDYWGQGTQVTVSS”, the “polyreactivity (PSR sort gate)” value is reported as “high polyreactivity”.
In the case of “QVQLVESGGGLVQAGGSLRLSCAASGRIFYHYAMGWYRQPPGKESELVAAITWSGDSTYYADSVKGRFTISRDNAQNTVYLQMNSLKPEDTAVSYCATSSPYGVRRYSRGSWGQGTQVTVSS”, the “polyreactivity (PSR sort gate)” value is reported as “high polyreactivity”.
For “QVQLVESGGGLVQAGGSLRLSCAASGRIFYINAMGWYIQAPGKERELVASITGSGGRTYYADSVKGRFTISRDNAKNTVYLQMNSLKPEDTAVYYCNADLYVGYLYYLYDYWGQGTQVTVSS”, the “polyreactivity (PSR sort gate)” value was “low polyreactivity”.
With “QVQLVESGGGLVQAGGSLRLSCAASGRIFYINAMGWYRQAPGTERELVAAITEGGVSTYYADSVKGRFTSSRDNAKNTVYLQMNSLKPEDTAVYYCNTTGGPDGIVIYEYWGQGTQVTVSS” the “polyreactivity (PSR sort gate)” value was “low polyreactivity”.
With “QVQLVESGGGLVQAGGSLRLSCAASGRIFYIYAMGWFRQAPGKERELVAAITNGGSTNYADSVKGRFTISRDNAKNTVYLQMNSLKPEDTAVYYCAASVGTYAYARTVYRYDYWGQGTQVTVSS” the “polyreactivity (PSR sort gate)” value was “low polyreactivity”.
In the case of “QVQLVESGGGLVQAGGSLRLSCAASGRIFYIYTMGWYRPAPGKEREFVAGINWNGGSTYYADSVKGRFTISRDNAKNTVYLQMNSLKPEDTAVYYCNADQYWDRYYYWGQGTQVTVSS”, the “polyreactivity (PSR sort gate)” value is reported as “low polyreactivity”.
For “QVQLVESGGGLVQAGGSLRLSCAASGRIFYKNVMVWYRQAPGKERELVAAISTSTGRTYYADSVKGRFTISRDNAKNTVYLEMNSLKPEDTAVYYCNAVRGHTNGVLYRYDYWGQGTQVTVSS”, the “polyreactivity (PSR sort gate)” value was “high polyreactivity”.
With “QVQLVESGGGLVQAGGSLRLSCAASGRIFYLNAMGWYRQAPGKERELVAAISGSTGSTYYADSVKGRFTISRDNAKNTVYLQMNSLKPEDTAVYYCNAGGVYDEFNYWGQGTQVTVSS” the “polyreactivity (PSR sort gate)” value was “low polyreactivity”.
For “QVQLVESGGGLVQAGGSLRLSCAASGRIFYLYGMGWYRQAPGKERELVAGITGSGGNTYYADSVKGRFTISRDNAMNTVYLQMNSLKPEDTAVYYCIARFRARPRMGYWGQGTQVTLSS”, the “polyreactivity (PSR sort gate)” value was “high polyreactivity”.
In the case of “QVQLVESGGGLVQAGGSLRLSCAASGRIFYLYTMGWYRQAPGKEREFSRYYADSVKGRFTISRDNAKNTVYLQMNCLKPEDTAVYSCAAADHPPVWYGYWGQGTHVTVSS”, the “polyreactivity (PSR sort gate)” value is reported as “low polyreactivity”.
In the case of “QVQLVESGGGLVQAGGSLRLSCAASGRIFYNNAMGWYRQAPGKERELVATISRGGSTNYADSVKGRFTISRDNAKNTVYLQMNSLKPEDTAVYYCAAVTTRSYGYEYWGQGTQVTVSS”, the “polyreactivity (PSR sort gate)” value is reported as “low polyreactivity”.
In the case of “QVQLVESGGGLVQAGGSLRLSCAASGRIFYNSVMGWYRQAPGKERELVAAISSSGGSTYYADSVKGRFTISRDNAKNTVYLQMNSLKPEDTAVYYCATTRRVPGEYWGQGTQVTVSS”, the “polyreactivity (PSR sort gate)” value is reported as “high polyreactivity”.
For “QVQLVESGGGLVQAGGSLRLSCAASGRIFYNYAMGWYRQAPGKERELVAAISGSGGSTYYADSVKGRFTISRDNAKNTVYLQMNSLKPEDTAVYYCNADTVYTRTAPYDYWGQGSQVTVSS”, the “polyreactivity (PSR sort gate)” value was “low polyreactivity”.
For “QVQLVESGGGLVQAGGSLRLSCAASGRIFYNYAMGWYRQAPGKERELVASINFSGTRTYYADSVKGRFTISRDNAKNTVYLQMNSLKPEDTAVYYCAARQAHGYYYWGQGTQVTVSS”, the “polyreactivity (PSR sort gate)” value was “high polyreactivity”.
In the case of “QVQLVESGGGLVQAGGSLRLSCAASGRIFYPNAMGWYRQAPGKERELVAAITGRGGITYYADSVKGRFTISRDNAKNTVYLQMNSLKPEDTAVYYCNAAAYYPTNYGGYLFEYWGQGTQVTVSS”, the “polyreactivity (PSR sort gate)” value is reported as “low polyreactivity”.
With “QVQLVESGGGLVQAGGSLRLSCAASGRIFYPNAMGWYRQAPGKERELVAGISSGGSTYYADSVKGRFTISRDNAKNTVYLQMNSLKPEDTAVYYCAARVYAHTSRRFLKYDYWGQGTQVTVSS” the “polyreactivity (PSR sort gate)” value was “high polyreactivity”.
With “QVQLVESGGGLVQAGGSLRLSCAASGRIFYPYAMGLYRQAPGKEREFVADISSAGSTYYADSVKGRFTISRDNAKNTVYLQMNSLKPEDTAVYYCAADRTSGAYYFRFLYDRDYWGQGTQVTVSS” the “polyreactivity (PSR sort gate)” value was “low polyreactivity”.
For “QVQLVESGGGLVQAGGSLRLSCAASGRIFYPYAMGWYRPAPGKERELVAAITVRGGRTYYADSVKWRFTISRDNAKNTVYLQMNSLKPEDTAVYYCNAVIGWYIGSRTYPHGPLQYDYWGQGTQVTLSS”, the “polyreactivity (PSR sort gate)” value was “high polyreactivity”.
With “QVQLVESGGGLVQAGGSLRLSCAASGRIFYPYAMGWYRQAPGKEREFVAAISYRGTSTFYADSVKGRFTISRDNAKNTVYLQMNSLKPEDTAVYYCAARVLWYGRATAAVTPYDYWGQGTQVTVSS” the “polyreactivity (PSR sort gate)” value was “high polyreactivity”.
